Source: patent publication US20130071921A1 (Pfizer, published 2013)

Key:
[1] = molecular target: T1, recombinant mouse Dkk-2 (R&D systems Cat No. 2435-DK/CF) (mouse, UniProt Q9QYZ8 34-259, limits assumed); assay: SPR BIAcore, huMabJC18 captured by goat Fab2 anti-human Fc, mDkk-2 titrated from 88.8 nM
T1 construct: Bought; also called mDkk-2
T1 sequence (looked up): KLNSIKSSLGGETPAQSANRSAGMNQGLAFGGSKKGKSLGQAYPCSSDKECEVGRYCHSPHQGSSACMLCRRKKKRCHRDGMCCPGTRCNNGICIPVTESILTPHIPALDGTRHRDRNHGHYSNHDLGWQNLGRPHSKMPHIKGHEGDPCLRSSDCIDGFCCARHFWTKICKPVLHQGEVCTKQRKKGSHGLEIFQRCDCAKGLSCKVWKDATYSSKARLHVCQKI

Cynomolgous monkey Dkk-1 = Cynomolgous monkey Dkk-1 (cynomolgous monkey); assay: TMDD PK/PD model fit to monkey serum data in vivo; derived as Koff/Kon
[2] = molecular target: T2, recombinant mouse Dkk-4 (R&D systems Cat No. 3105-DK/CF) (mouse, UniProt Q8VEJ3 19-221, limits assumed); assay: SPR BIAcore, huMabJC18 captured by goat Fab2 anti-human Fc, mDkk-4 titrated from 32.3 nM
T2 construct: Bought; also called mDkk-4
T2 sequence (looked up): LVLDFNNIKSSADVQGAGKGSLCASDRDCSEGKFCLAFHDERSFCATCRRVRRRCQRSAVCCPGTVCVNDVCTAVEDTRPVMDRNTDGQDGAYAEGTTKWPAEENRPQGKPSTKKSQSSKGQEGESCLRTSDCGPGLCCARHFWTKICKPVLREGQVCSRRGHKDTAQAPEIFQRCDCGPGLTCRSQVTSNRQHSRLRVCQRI

[3] = molecular target: T3, Recombinant human Dkk-1 (R&D Systems cat no. 1096-DK/CF), 10xHis tag at the C terminal (human, UniProt O94907 32-266); assay: SPR (Table 4, headed 37C, BIAcore or ProteOn); 37 C per caption of Table 4
T3 construct: the actual N-terminus of the purified protein is marked in bold italic after residue 30, but the mark is an image lost in the text; also called rhuDkk-1; hDkk-1
T3 sequence: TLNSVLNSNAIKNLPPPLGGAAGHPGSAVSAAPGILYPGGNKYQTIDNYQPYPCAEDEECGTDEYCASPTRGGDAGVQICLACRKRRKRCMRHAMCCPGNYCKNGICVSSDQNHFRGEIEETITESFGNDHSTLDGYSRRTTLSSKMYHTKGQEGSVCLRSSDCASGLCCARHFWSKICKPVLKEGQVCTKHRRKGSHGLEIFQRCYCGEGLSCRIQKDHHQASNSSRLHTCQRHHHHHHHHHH

[4] = molecular target: T3, Recombinant human Dkk-1 (R&D Systems …); assay: cell-based or functional assay
[5] = molecular target: T4, recombinant mouse Dkk-1 (R&D systems Cat No. 1765-DK/CF) (mouse, UniProt O54908 32-272); assay: method not given
T4 construct: Bought
T4 sequence (looked up): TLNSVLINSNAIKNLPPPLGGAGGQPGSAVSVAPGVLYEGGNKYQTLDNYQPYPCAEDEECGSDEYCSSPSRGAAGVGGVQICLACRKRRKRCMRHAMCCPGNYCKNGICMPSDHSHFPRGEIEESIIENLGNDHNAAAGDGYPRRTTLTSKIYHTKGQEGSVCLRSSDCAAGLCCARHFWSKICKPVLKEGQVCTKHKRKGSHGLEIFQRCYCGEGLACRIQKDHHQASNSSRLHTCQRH

[6] = molecular target: T3, Recombinant human Dkk-1 (R&D Systems …); assay: method not given
[7] = molecular target: T5, recombinant human Dkk3 (R&D systems Cat No. 1118-DK/CF) (human, UniProt Q9UBP4 22-350); assay: SPR BIAcore, huMabJC18 captured by goat Fab2 anti-human Fc
T5 construct: Bought; also called hDkk-3

[8] = molecular target: T4, recombinant mouse Dkk-1 (R&D systems …); assay: SPR BIAcore, huMabJC18 captured by goat Fab2 anti-human Fc, mouse Dkk-1 injected
Description: For the interaction analyses of huMabJC18 with mouse or rat Dkk-1, low-levels of huMabJC18 (typically, 100-400 response units) were captured on individual flow cells by goat Fab2 anti-human Fc, which was pre-immobilized to the CM5 chip surface. A goat Fab2 anti-human Fc-saturated flow cell containing no humanized antibody served as reference channel. Mouse or rat Dkk-1 (R&D Systems) was titrated over the chip using 70.1 nM or 30.2 nM as top concentration, respectively, of a three-fold dilution series Association and dissociation phases were monitored at 100 μL/min for 90 seconds and 30 minutes, respectively. Capture surfaces for all experiments were regenerated with two 30 second pulses of […] H₃PO₄, except for the amine-coupled huMabJC18 surface used in the human Dkk-1 experiment, which was not regenerated.

[9] = molecular target: T3, Recombinant human Dkk-1 (R&D Systems …); assay: SPR (Table 4, headed 37C, BIAcore or ProteOn)

T5 sequence (Q9UBP4 22-350 limits assumed): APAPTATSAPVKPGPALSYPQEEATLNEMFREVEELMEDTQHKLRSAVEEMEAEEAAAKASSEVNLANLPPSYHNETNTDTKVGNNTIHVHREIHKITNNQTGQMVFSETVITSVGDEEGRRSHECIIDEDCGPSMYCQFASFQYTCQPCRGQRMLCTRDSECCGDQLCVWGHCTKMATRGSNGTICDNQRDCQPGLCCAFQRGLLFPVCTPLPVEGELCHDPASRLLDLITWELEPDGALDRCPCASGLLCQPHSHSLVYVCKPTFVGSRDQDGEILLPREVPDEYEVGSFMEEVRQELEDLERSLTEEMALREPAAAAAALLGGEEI

Kd [1]: 9 nM
T1/2 [1]: 1.14 h
koff [1]: 0.000169 s⁻¹
kon [1]: 18000 M⁻¹ s⁻¹
Kd (Cynomolgous monkey Dkk-1): 0.0513 nM
Kd [2]: < 0.03 nM
T1/2 [2]: > 4.94 h
koff [2]: < 3.9e-05 s⁻¹
kon [2]: > 1.3e+06 M⁻¹ s⁻¹
kon [3]: > 1.36e+06 M⁻¹ s⁻¹
IC50 in a Cell-based Functional Assay (U2OS TOPFlash luciferase; reversal of Dkk-1 inhibition of Wnt3a signaling) [4]: 1.3 nM
fold increase in affinity against the parent mouse antibody JC18 [5]: > 100 fold
fold increase in affinity against the parent mouse antibody JC18 [6]: > 100 fold
binding result [7]: no binding
Kd [8]: < 0.03 nM
T1/2 [8]: > 4.94 h
koff [8]: < 3.9e-05 s⁻¹
kon [8]: > 1.3e+06 M⁻¹ s⁻¹
Kd [9]: < 0.002 nM
koff [9]: < 2e-06 s⁻¹
B1: huMabJC18, fully humanized anti-Dkk-1 monoclonal antibody (antibody, human IgG2, kappa, V domains shown)
VH: EVQLVESGGGLVQPGGSLRLSCAASGFTFSSYAISWVRQAPGKGLEWVASVSGTGLGFQTYYPDSVKGRFTISRDNAKNSLYLQMNSLRAEDTAVYYCATSLENYAFDYWGQGTTVTVSS
VL: EIVLTQSPATLSLSPGERATLSCRASESVDDFGISFINWYQQKPGQAPRLLIYAGSKQGSGIPARFSGSGSGTDFTLTISSLEPEDFAVYYCQQLKEVPPTFGGGTKVEIKR
notes: IgG2(delta a: A329S, P330S), kappa; also called huMabJC18 IgG
